Data on one substance can be found in PMC2912072.

This test deals with human BKCa (Slo1) RCK1 domain (322IIE...HDP667) carrying the D362A/367A mutations (human). Kind of test: SEC. On the technique in general: SEC sorts molecules by how far they enter the pores of the column.

Where only a bound is given, the exact number is not on record here.

The term stoichiometry N denotes a count of units in the complex or per binding partner. “human BKCa (Slo1) RCK1 domain (322IIE...HDP667) carrying the D362A/367A mutations (domain or fragment)” came in with a stoichiometry N above 16.
